Test [1] has as its target endogenous MMP-1 in clinical saliva samples (human) (UniProt P03956). As to the kind of experiment: sandwich ELISA; capture MAB901, detection 1-8A12-HRP; saliva sample 1 (MMP-1 14821.9 pg/ml). (In an ELISA, binding on a coated surface is turned into a signal by an enzyme label.)
For test [2], the target named is human recombinant MMP-1 (human) (UniProt P03956). The experiment in a line: sandwich ELISA; capture MAB901, detection 1-8A12-HRP; MMP-1 0.313 ng/ml.
The target is the same in test [3]. The experiment in a line: sandwich ELISA; capture MAB901, detection 1-8A12-HRP; MMP-1 0.156 ng/ml.
In test [4] the target is endogenous MMP-1 in clinical saliva samples (human) (UniProt P03956). As to the kind of experiment: sandwich ELISA; capture MAB901, detection 1-8A12-HRP; saliva sample 3 (MMP-1 1503.2 pg/ml).
The target is the same in test [5]. The experiment in a line: sandwich ELISA; capture MAB901, detection 1-8A12-HRP; saliva sample 7 (MMP-1 120.6 pg/ml).
For test [6] the target is unchanged. The experiment in a line: sandwich ELISA; capture MAB901, detection 1-8A12-HRP; saliva sample 6 (MMP-1 27.1 pg/ml).
Test [7] deals with human recombinant MMP-1 (human) (UniProt P03956). The experiment in a line: sandwich ELISA; capture MAB901, detection 1-8A12-HRP; MMP-1 5 ng/ml.
In test [8] the target is endogenous MMP-1 in clinical saliva samples (human) (UniProt P03956). The experiment in a line: sandwich ELISA; capture MAB901, detection 1-8A12-HRP; saliva sample 5 (MMP-1 285.6 pg/ml).
For test [9] the target is unchanged. As to the kind of experiment: sandwich ELISA; capture MAB901, detection 1-8A12-HRP; saliva sample 8 (MMP-1 0 pg/ml).
For test [10] the target is unchanged. The experiment in a line: sandwich ELISA; capture MAB901, detection 1-8A12-HRP; saliva sample 2 (MMP-1 5041.1 pg/ml).
Test [11] addresses human recombinant MMP-1 (human) (UniProt P03956). The experiment in a line: sandwich ELISA; capture MAB901, detection 1-8A12-HRP; MMP-1 10 ng/ml.
Test [12] shares this target. The experiment in a line: sandwich ELISA; capture MAB901, detection 1-8A12-HRP; MMP-1 1.25 ng/ml.
Test [13] concerns the target endogenous MMP-1 in clinical saliva samples (human) (UniProt P03956). As to the kind of experiment: sandwich ELISA; capture MAB901, detection 1-8A12-HRP; saliva sample 4 (MMP-1 6.4 pg/ml).
Test [14] concerns the target human recombinant MMP-1 (human) (UniProt P03956). The experiment in a line: sandwich ELISA; capture MAB901, detection 1-8A12-HRP; MMP-1 2.5 ng/ml.
The target is the same in test [15]. As to the kind of experiment: sandwich ELISA; capture MAB901, detection 1-8A12-HRP; MMP-1 0.625 ng/ml.

With MAB901 (antibody), the OD value in test [1] is 2.69 OD; in [2], 0.056 OD; in test [3], 0.027 OD; in test [4], 0.11 OD; in test [5], 0.006 OD; in test [6], 0.003 OD. Further, the OD value is 1.19 OD in [7]; 0.045 OD in [8]; -0.01 OD in [9]; 0.883 OD in [10]; 2.34 OD in [11]; 0.258 OD in test [12]. The figures for the OD value in test [13], in test [14] and in test [15] were -0.019 OD, 0.544 OD and 0.119 OD, respectively.

(Values after US20230192888A1.)
